In experiment [1] the target is T1, receptor tyrosine kinase orphan receptor 1 (ROR1) on Ntera-2 cells (human, UniProt Q01973 30-937). Kind of experiment: cell-based or functional assay.
In experiment [2] the target is T1, receptor tyrosine kinase orphan …. Nature of the experiment: cell-based or functional assay. The source holds these as a separate data set.
Experiment [3] has as its target T2, human ROR1 Frizzled domain (Fz, residues 165-305) with C-terminal HIS6 tag (human, UniProt Q01973 165-305).
T2 construct: Made in HEK293 cells and purified (Acro Biosystems); also called ROR1 Fz; hROR1-Fz
Kind of experiment: SPR (Biacore T200), IgG captured by anti-human Fc, ROR1 Fz as analyte, 1:1 Langmuir fit. As for the experimental part:
The data was fit with the Biacore™ T200 Evaluation software, using a 1-1 Langmuir binding model. KD (affinity, nM) was determined as a ratio of the kinetic rate constants calculated from the fits of the association and dissociation phases.
(In general: In SPR one partner is held on a chip, and binding of the other changes the refractive index at the surface.)

The target in experiment [4] is ROR1 (recombinant protein coated on the ELISA plate, Example 11) (UniProt Q01973 30-403, limits assumed). Kind of experiment: ELISA: ROR1 coated on the plate, antibody titrated 3-fold from 5 ug/mL, HRP anti-human Fc, chemiluminescence (ELISA RLU). An excerpt:
The anti-ROR1 lead antibodies were discovered from a Fab ribosome display library that contained CDR H1, H2, and H3 diversity and utilized a constant LC (trastuzumab LC). In this example, the HCs of the lead antibodies were co-expressed with trastuzumab LC or different LCs derived from anti-CD3 antibodies: hOKT3-LC1, hSP34-LC3, hUCHT1-LC3 to determine if the anti-ROR1 HC leads would retain binding to ROR1 when assembled with anti-CD3 LCs. […] The antibodies were then purified and tested for ROR1 binding by ELISA. The ELISA assay was carried out as follows. Briefly, 2 μg/mL of ROR1 was coated to a 384-well polystyrene plate for 1 hr at 30° C. in 0.1 M bicarbonate pH8.9 buffer before it was washed and blocked with 2% BSA in PBST (PBS, 0.1% Tween20) for 1 hr. Antibody variants were diluted to 5 μg/mL and further serially diluted 3-fold before 30 μL was applied to the ELISA plates for binding ([…] Antibody binding was detected via HRP-conjugated anti-human Fc antibodies (Jackson Immunoresearch) and detection with SuperSignal ELISA Pico Chemiluminescent Substrate (Pierce).
In general terms: An ELISA detects its analyte on a solid surface through an enzyme-linked reagent.

The target in the next experiment is human ROR1 (hROR1) (human, UniProt Q01973 30-937). Kind of experiment: cell-based or functional assay.

Read-outs that look alike come from different tables or passages of the source.

B1: Conjugate 5 (D04-F404-LP8) (antibody, human IgG1, kappa)
heavy: MEVQLVESGGGLVQPGGSLRLSCAASGFNISDYDIHWVRQAPGKGLEWVGGIDPADGSTDYADSVKGRFTISADTSKNTAYLQMNSLRAEDTAVYYCARDYGVYDYWGQGTLVTVSSASTKGPSVFPLAPSSKSTSGGTAALGCLVKDYFPEPVTVSWNSGALTSGVHTFPAVLQSSGLYSLSSVVTVPSSSLGTQTYICNVNHKPSNTKVDKKVEPKSCDKTHTCPPCPAPELLGGPSVFLFPPKPKDTLMISRTPEVTCVVVDVSHEDPEVKFNWYVDGVEVHNAKTKPREEQYNSTYRVVSVLTVLHQDWLNGKEYKCKVSNKALPAPIEKTISKAKGQPREPQVYTLPPSREEMTKNQVSLTCLVKGFYPSDIAVEWESNGQPENNYKTTPPVLDSDGSFLYSKLTVDKSRWQQGNVFSCSVMHEALHNHYTQKSLSLSPGK
light: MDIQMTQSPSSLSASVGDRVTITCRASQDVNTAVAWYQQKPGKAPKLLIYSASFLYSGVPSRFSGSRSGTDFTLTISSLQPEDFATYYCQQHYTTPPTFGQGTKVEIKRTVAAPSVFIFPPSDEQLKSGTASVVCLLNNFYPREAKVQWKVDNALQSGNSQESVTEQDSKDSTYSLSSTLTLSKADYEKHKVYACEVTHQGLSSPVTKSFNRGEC
modifications: pAMF at F404 (EU), linked to LP8
For the molecule B1, in experiment [1], the “cell killing EC50, NTERA-2 cells” value came to 0.021 nM and the “cell killing Span, NTERA-2 cells” value was 85%. For the same molecule, in experiment [2], the “cell killing EC50, NTERA-2 cells” value was determined as 0.013 nM and the “cell killing Span, NTERA-2 cells” value came out at 83%.

B2: Conjugate 44 (D04-F404-LP27) (antibody, human IgG1, kappa)
heavy: B1 heavy
light: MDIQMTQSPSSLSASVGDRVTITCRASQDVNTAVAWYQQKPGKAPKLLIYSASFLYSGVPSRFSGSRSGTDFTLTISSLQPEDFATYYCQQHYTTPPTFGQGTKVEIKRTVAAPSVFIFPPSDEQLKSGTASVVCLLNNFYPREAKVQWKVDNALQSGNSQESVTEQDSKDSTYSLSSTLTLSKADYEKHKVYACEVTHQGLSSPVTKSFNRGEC
modifications: pAMF at F404 (EU), linked to LP27
In the case of B2, in experiment [2], the “cell killing EC50, NTERA-2 cells” value was found to be 0.017 nM and the “cell killing Span, NTERA-2 cells” value was 80%.

B3: Conjugate 45 (D04-F404-LP28) (antibody, human IgG1, kappa)
heavy: B1 heavy
light: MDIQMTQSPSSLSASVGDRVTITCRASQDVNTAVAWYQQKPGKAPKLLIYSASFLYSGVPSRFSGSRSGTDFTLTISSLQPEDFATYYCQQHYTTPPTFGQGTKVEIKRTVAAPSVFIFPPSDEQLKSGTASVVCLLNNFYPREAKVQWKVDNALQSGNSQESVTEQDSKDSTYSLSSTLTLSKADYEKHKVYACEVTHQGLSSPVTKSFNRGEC
modifications: pAMF at F404 (EU), linked to LP28
As to B3, in experiment [2], the “cell killing EC50, NTERA-2 cells” value was greater than 10 nM and the “cell killing Span, NTERA-2 cells” value was less than 10%.

B4: 1944-A07 HC with Trastuzumab LC (antibody, IgG1, V domains shown)
VH: EVQLVESGGGLVQPGGSLRLSCAASGFNITGYYIHWVRQAPGKGLEWVGYISPNSGSTYYADSVKGRFTISADTSKNTAYLQMNSLRAEDTAVYYCARDSRRYVRPFDYWGQGTLVTVSS
VL: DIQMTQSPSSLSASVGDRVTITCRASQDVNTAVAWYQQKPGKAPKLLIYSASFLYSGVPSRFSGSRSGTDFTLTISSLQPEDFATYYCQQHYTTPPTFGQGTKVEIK
notes: Screening constructs are described as His- and FLAG-tagged IgG1; also called SRP1944-A07
Consider B4, for which, in experiment [3], the equilibrium dissociation constant (Kd) amounted to 9.59 nM, the off-rate (koff) was 0.029 s⁻¹ and the kon is 3.02e+06 M⁻¹ s⁻¹. Besides, the concentration for a half-maximal effect (EC50 (read off the curve)) in experiment [4] is roughly 0.02 µg/mL.

B5: 1944-A07 HC co-expressed with hUCHT1-LC3 light chain (antibody, V domains shown)
VH: B4 VH
VL: DIQMTQSPSTLSASVGDRVTITCRASQDIRNYLNWYQQKPGKAPKLLIYYTSRLHSGVPSRFSGSGSGTEYTLTISSLQPDDFATYYCQQGNTLPWTFGGGTKVEIK
notes: Only variable domains are tied to this pairing
Turning to B5, the “EC50 (read off the curve)” value in experiment [4] is roughly 0.02 µg/mL.

B6: 1944-A07 HC with hSP34-LC3 light chain (antibody, V domains shown)
VH: B4 VH
VL: QTVVTQEPSLTVSPGGTVTLTCGSSTGAVTSGYYPNWFQQKPGQAPRGLIGGTKFLAPGTPARFSGSLLGGKAALTLSGVQPEDEAEYYCALWYSNRWVFGGGTQLTVTG
notes: IgG with an anti-CD3 light chain
B6: in experiment [3], the Kd is 6.35 nM, the koff came out at 0.00228 s⁻¹ and the kon was determined as 360000 M⁻¹ s⁻¹.

B7: 1944-A07 HC with hUCHT1-LC3 light chain (antibody, V domains shown)
VH: B4 VH
VL: B5 VL
notes: as for B6
With B7, in experiment [3], the Kd came to 64.1 nM, the koff came to 0.119 s⁻¹ and the kon amounted to 1.85e+06 M⁻¹ s⁻¹.

B8: 1944-A07 HC co-expressed with hSP34-LC3 light chain (antibody, IgG1, V domains shown)
VH: B4 VH
VL: B6 VL
notes: as for B5
In the case of B8, the “EC50 (read off the curve)” value in experiment [4] was roughly 0.05 µg/mL.

B9: Conjugate 1 (2188-D04-Y180/F404-LP1) (antibody, human IgG1, kappa)
heavy: MEVQLVESGGGLVQPGGSLRLSCAASGFNISDYDIHWVRQAPGKGLEWVGGIDPADGSTDYADSVKGRFTISADTSKNTAYLQMNSLRAEDTAVYYCARDYGVYDYWGQGTLVTVSSASTKGPSVFPLAPSSKSTSGGTAALGCLVKDYFPEPVTVSWNSGALTSGVHTFPAVLQSSGLSLSSVVTVPSSSLGTQTYICNVNHKPSNTKVDKKVEPKSCDKTHTCPPCPAPELLGGPSVFLFPPKPKDTLMISRTPEVTCVVVDVSHEDPEVKFNWYVDGVEVHNAKTKPREEQYNSTYRVVSVLTVLHQDWLNGKEYKCKVSNKALPAPIEKTISKAKGQPREPQVYTLPPSREEMTKNQVSLTCLVKGFYPSDIAVEWESNGQPENNYKTTPPVLDSDGSFLYSKLTVDKSRWQQGNVFSCSVMHEALHNHYTQKSLSLSPGK
light: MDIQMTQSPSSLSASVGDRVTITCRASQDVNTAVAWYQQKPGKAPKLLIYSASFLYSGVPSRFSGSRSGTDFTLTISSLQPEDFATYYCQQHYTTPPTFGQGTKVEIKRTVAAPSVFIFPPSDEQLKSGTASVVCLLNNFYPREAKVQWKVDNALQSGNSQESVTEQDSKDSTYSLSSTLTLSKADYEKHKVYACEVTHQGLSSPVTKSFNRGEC
modifications: pAMF at HC-Y180 and HC-F404 (the * of the entry), conjugated to LP1 (DBCO-Valcit-pAB-hemiasterlin)
For the molecule B9, in the experiment with human ROR1 (hROR1), the “cell killing on ROR1 positive NTERA-2 cells, EC50” value is greater than 10 nM and the “cell killing on ROR1 positive NTERA-2 cells, Span” value is less than 20%.

B10: Conjugate 7 (2188-D04-Y180/F404/K42/E161-LP10) (antibody, human IgG1, kappa)
heavy: B9 heavy
light: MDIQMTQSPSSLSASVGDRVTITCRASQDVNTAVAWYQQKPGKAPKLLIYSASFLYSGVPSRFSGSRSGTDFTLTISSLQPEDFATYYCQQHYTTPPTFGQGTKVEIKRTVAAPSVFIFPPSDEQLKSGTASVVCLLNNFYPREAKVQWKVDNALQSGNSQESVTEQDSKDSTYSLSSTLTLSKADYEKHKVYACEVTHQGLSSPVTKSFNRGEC
modifications: pAMF in place of LC-K42 and LC-E161 (Kabat numbering), conjugated to LP10; pAMF at HC-Y180 and HC-F404 (the * of the entry), conjugated to LP10
Take B10: in the experiment with human ROR1 (hROR1), the “cell killing on ROR1 positive NTERA-2 cells, EC50” value was 0.048 nM and the “cell killing on ROR1 positive NTERA-2 cells, Span” value worked out at 94%.

B11: Conjugate 6 (2188-D04-Y180/F404-LP10) (antibody, human IgG1, kappa)
heavy: B9 heavy
light: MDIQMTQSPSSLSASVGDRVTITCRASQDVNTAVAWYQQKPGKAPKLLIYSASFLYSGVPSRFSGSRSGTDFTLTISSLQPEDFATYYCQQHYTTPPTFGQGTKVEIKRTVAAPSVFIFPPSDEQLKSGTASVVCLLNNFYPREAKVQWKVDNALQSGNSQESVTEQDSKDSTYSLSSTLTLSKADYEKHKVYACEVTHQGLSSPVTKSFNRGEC
modifications: pAMF at HC-Y180 and HC-F404 (the * of the entry), conjugated to LP10 (DBCO-PEG4-GGFG-aminol-Dxd)
As for B11, in the experiment with human ROR1 (hROR1), the “cell killing on ROR1 positive NTERA-2 cells, EC50” value was determined as 0.08 nM and the “cell killing on ROR1 positive NTERA-2 cells, Span” value came out at 53%.

B12: Conjugate 2 (2188-D04-Y180/F404/K42-LP1) (antibody, human IgG1, kappa)
heavy: B9 heavy
light: MDIQMTQSPSSLSASVGDRVTITCRASQDVNTAVAWYQQKPGAPKLLIYSASFLYSGVPSRFSGSRSGTDFTLTISSLQPEDFATYYCQQHYTTPPTFGQGTKVEIKRTVAAPSVFIFPPSDEQLKSGTASVVCLLNNFYPREAKVQWKVDNALQSGNSQESVTEQDSKDSTYSLSSTLTLSKADYEKHKVYACEVTHQGLSSPVTKSFNRGEC
modifications: pAMF at LC-K42 (the * of the entry), conjugated to LP1; pAMF at HC-Y180 and HC-F404 (the * of the entry), conjugated to LP1
Take B12: in the experiment with human ROR1 (hROR1), the “cell killing on ROR1 positive NTERA-2 cells, EC50” value was 0.082 nM and the “cell killing on ROR1 positive NTERA-2 cells, Span” value is 49%.

B13: Conjugate 4 (2188-D04-Y180/F404/K42/E161-LP1) (antibody, human IgG1, kappa)
heavy: B9 heavy
light: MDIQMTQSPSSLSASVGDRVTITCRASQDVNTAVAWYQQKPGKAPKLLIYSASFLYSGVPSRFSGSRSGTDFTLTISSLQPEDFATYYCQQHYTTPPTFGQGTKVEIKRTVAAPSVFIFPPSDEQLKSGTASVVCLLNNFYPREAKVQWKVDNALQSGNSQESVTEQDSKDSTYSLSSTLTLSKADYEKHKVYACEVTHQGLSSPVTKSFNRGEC
modifications: pAMF in place of LC-K42 and LC-E161 (Kabat numbering), conjugated to LP1; pAMF at HC-Y180 and HC-F404 (the * of the entry), conjugated to LP1
Regarding B13, in the experiment with human ROR1 (hROR1), the “cell killing on ROR1 positive NTERA-2 cells, EC50” value was 0.022 nM and the “cell killing on ROR1 positive NTERA-2 cells, Span” value is 63%.

Usually Kd stands for the free concentration of one partner at which half of the binding sites on the other are occupied at equilibrium, for simple one-to-one binding. In general, koff refers to a measure of how fast the partners let go of each other. Broadly, the kon is the second-order rate constant of association. Lower therefore signals slower complex formation. Broadly, the EC50 (read off the curve) is the concentration needed to bring the measured effect to its halfway point.

Values taken from patent US20240058465A1 (SUTRO BIOPHARMA, published 2024).
